Reference: patent US9969998B2, “Compositions of adenosine deaminase-2 (ADA2), variants thereof and methods of using same” (Halozyme, Inc., priority 2014, dated 2018)
Where a chain is given by its changes, count along the chain named. In names and notes the source's numbering stands. Where two headings read alike, the source gives them in different places. Each block holds one molecule with its values, some of them ahead of it.

Experiments:
[1] = In vivo pharmacokinetics of rHuADA2, variants and PEGylated forms (Example 9); settings: male BALB/c mice, 7.5 mg/kg intravenous
[2] = Heparin binding capture ELISA (biotin-heparin on streptavidin plate); settings: PEGylated and non-PEGylated forms (Table 22)
Description: Heparin binding of PEGylated rHuADA2 or variants was assessed by capture ELISA. Binding of rHuADA1 was assessed as a negative control. 100 μL of 0.2 mg/mL biotin-heparin (Sigma-Aldrich, St. Louis, Mo.; Cat No. B9806-10MG) was added to a streptavidin coated 96-well plate (Thermo Fisher Scientific, Rockford, Ill.; Cat. No. 15520), and incubated at room temperature for 1 hour. The plate was washed 6 times with PBS. Then, 150 μL of […] rHuADA2 was added to the heparin coated plate, titrated in 3× serial dilutions, and incubated at room temperature for 2 hours. The plate was then washed 6 times with PBS. A 1000× dilution of goat HRP-anti-FLAG pAb (Abcam, Cambridge, UK; Cat. No. Ab1238) was added to the ELISA plate and incubated at room temperature for 1 hour. The ELISA plate was then washed 6 times with phosphate buffered saline with Tween (PBST) and developed with the 3,3′,5,5′-Tetramethylbenzidine (TMB) substrate solution (Pierce, Thermo Fisher Scientific, Rockford, Ill.) according the manufacturer's instructions and reading the optical density at 450 nm (OD450) on a plate reader.

[3] = Heparin-affinity chromatography (heparin-Sepharose, SDS-PAGE); format: binding; settings: for Heparin Column Binding: compared to WT rHuADA2, 0.3 mg/mL protein
Description: To assess binding of variants to heparin, heparin-affinity chromatography was employed to identify heparin-bound variants. Heparin binding was tested by mixing 35 μL of rHuADA2 WT and variants with 20 μL heparin-Sepharose™ resin (GE Healthcare, Pittsburgh, Pa.; Cat. No. 17-0998-01), followed by incubating at room temperature for 30 min. The mixture was then centrifuged through a 0.22 μm centrifuge filter and the flow-through, containing the unbound protein, was collected for analysis on an SDS-PAGE gel. 35 μL of 1.5 M NaCl was added to heparin-Sepharose resin and incubated at room temperature (RT) for 10 min to elute the remaining heparin-bound protein from the heparin-Sepharose. Samples of purified WT rHuADA2 and tested variants, before and after mixing with the heparin-Sepharose resin, were analyzed by SDS-PAGE to compare the degree of heparin binding.

[4] = Heparin binding ELISA (heparin coated microtiter plate); settings: for Average OD450, heparin binding ELISA: 3 μM protein; for Heparin Binding ELISA Average OD450: single and S265N combination variants (Table 34)
In short: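 Plates coated with 200 μg/mL heparin in Na2CO3 buffer pH 9.6 overnight at 4° C, then milk-blocked. FLAG-tagged rHuADA2 variants added at 3 μM for 2 h at room temperature. Bound protein detected with HRP-anti-FLAG and TMB, read as OD450.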

[5] = Kinetic assessment of adenosine deaminase activity (ammonia assay, Michaelis-Menten); format: biochemical; settings: for kcat: kcat=Vmax/0.0085/60; for kinetics properties compared to WT: pH 7.6 and pH 6.5
In short: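 Coupled ammonia assay: rHuADA2 WT or variants (1 μg/mL, 17 nM in 2× mix) with adenosine 20 μM–20 mM, α-ketoglutarate, NADPH and GDH, at pH 7.6 or pH 6.5 (PIPES), room temperature. Michaelis-Menten fit gave Km, Vmax, kcat, kcat/Km.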

[6] = mouse, in vivo, iv, 7.5 mg/kg

B1: R23E: ADA2 variant SEQ ID NO:30 (protein)
chain: IDETRAHLLLKEKMMRLGGELVLNTKEELANERLMTLKIAEMKEAMRTLIFPPSMHFFQAKHLIERSQVFNILRMMPKGAALHLHDIGIVTMDWLVRNVTYRPHCHICFTPRGIMQFRFAHPTPRPSEKCSKWILLEDYRKRVQNVTEFDDSLLRNFTLVTQHPEVIYTNQNVVWSKFETIFFTISGLIHYAPVFRDYVFRSMQEFYEDNVLYMEIRARLLPVYELSGEHHDEEWSVKTYQEVAQKFVETHPEFIGIKIIYSDHRSKDVAVIAESIRMAMGLRIKFPTVVAGFDLVGHEDTGHSLHDYKEALMIPAKDGVKLPYFFHAGETDWQGTSIDRNILDALMLNTTRIGHGFALSKHPAVRTYSWKKDIPIEVCPISNQVLKLVSDLRNHPVATLMATGHPMVISSDDPAMFGAKGLSYDFYEVFMGIGGMKADLRTLKQLAMNSIKYSTLLESEKNTFMEIWKKRWDKFIADVATK
modifications: human ADA2 R20E, mature numbering
Half life slow (t1/2) [1]: 2.52 h | Percent increase in AUC compared to WT ADA2 ([1]; vs non-PEGylated WT): 19% | Percent increase in t1/2 compared to WT ADA2 ([1]; vs non-PEGylated WT): 119% | Average OD450, heparin binding capture ELISA [2]: 0.71 | heparin binding compared to WT [3]: attenuated heparin binding | Heparin Column Binding [3]: Reduced | binding to heparin-coated plates compared to WT ADA2 [4]: attenuated binding to heparin | Average OD450, heparin binding ELISA ([4]; Set 2): 0.2 | Heparin Binding ELISA Average OD450 [4]: 0.71 | Km ([5]; pH 6.5, [E] = 8.5 nM): 3.29 mM | Vmax ([5]; pH 6.5, [E] = 8.5 nM): 37.16 µM/min | kcat ([5]; pH 6.5, [E] = 8.5 nM): 72.86 s⁻¹ | Km ([5]; pH 7.6, [E] = 8.5 nM): 5.06 mM | Vmax ([5]; pH 7.6, [E] = 8.5 nM): 29.08 µM/min | kcat ([5]; pH 7.6, [E] = 8.5 nM): 57.02 s⁻¹ | kinetics properties compared to WT [5]: improved kinetics properties compared to WT

B4: K374D: ADA2 variant SEQ ID NO:20 (protein)
chain: B1 chain with E20R, K371D
modifications: human ADA2 K371D, mature numbering
AUC (mU * h)/mL [6]: 74,983 (mU * h)/mL | Half life slow (t1/2) [6]: 3.8 h | Percent increase in AUC compared to WT ADA2 [6]: 128% | Percent increase in t1/2 compared to WT ADA2 [6]: 230% | Average OD450, heparin binding capture ELISA [2]: 0.87 | heparin binding compared to WT [3]: attenuated heparin binding | Heparin Column Binding [3]: Reduced | binding to heparin-coated plates compared to WT ADA2 [4]: attenuated binding to heparin | Average OD450, heparin binding ELISA ([4]; Set 1): 0.15 | Heparin Binding ELISA Average OD450 [4]: 0.87 | Km ([5]; pH 6.5, [E] = 8.5 nM): 3.16 mM | Vmax ([5]; pH 6.5, [E] = 8.5 nM): 42.98 µM/min | kcat ([5]; pH 6.5, [E] = 8.5 nM): 84.27 s⁻¹ | Km ([5]; pH 7.6, [E] = 8.5 nM): 4.88 mM | Vmax ([5]; pH 7.6, [E] = 8.5 nM): 28.25 µM/min | kcat ([5]; pH 7.6, [E] = 8.5 nM): 55.39 s⁻¹ | kinetics properties compared to WT [5]: improved kinetics properties compared to WT

B5: S265N: ADA2 variant SEQ ID NO:54 (protein)
chain: B1 chain with E20R, S262N
modifications: human ADA2 S262N, mature numbering
binding to heparin-coated plates compared to WT ADA2 [4]: attenuated binding to heparin coated plates | Heparin Binding ELISA Average OD450 [4]: 0.88 | Km ([5]; pH 6.5): 1.49 mM | Km ([5]; pH 6.5, [E] = 8.5 nM): 1.49 mM | Vmax ([5]; pH 6.5, [E] = 8.5 nM): 45.79 µM/min | kcat ([5]; pH 6.5, [E] = 8.5 nM): 89.78 s⁻¹ | Km ([5]; pH 7.6): 3.02 mM | Km ([5]; pH 7.6, [E] = 8.5 nM): 3.02 mM | Vmax ([5]; pH 7.6, [E] = 8.5 nM): 80.49 µM/min | kcat ([5]; pH 7.6, [E] = 8.5 nM): 157.82 s⁻¹

More lines, main results first:

Average OD450, heparin binding capture ELISA [2]: 0.15
B2: PEG-K374D: rHuADA2-K374D (SEQ ID NO:20) PEGylated on surface exposed lysines with linear PEG-20K (conjugate)
chain: B1 chain with E20R, K371D
modifications: linear PEG-20K on surface lysines; human ADA2 K371D, mature numbering
AUC (mU * h)/mL [6]: 2,725,000 (mU * h)/mL | Half life slow (t1/2) [6]: 21.75 h | Percent increase in AUC compared to WT ADA2 [6]: 8187% | Percent increase in t1/2 compared to WT ADA2 [6]: 1791%

Average OD450, heparin binding capture ELISA [2]: 2.31 | Average OD450, heparin binding ELISA ([4]; Set 1): 0.49 | Average OD450, heparin binding ELISA ([4]; Set 2): 0.55 | Heparin Binding ELISA Average OD450 [4]: 2.31
B3: WT ADA2: wild type recombinant human adenosine deaminase 2 with FLAG tag, mature ADA2 SEQ ID NO:5 (protein, listed as Homo sapiens)
chain: B1 chain with E20R
modifications: FLAG tag; ADA2 mature protein
Half life slow (t1/2) [1]: 1.15 h | Km ([5]; pH 6.5): 3.66 mM | Km ([5]; pH 6.5, [E] = 8.5 nM): 3.66 mM | Vmax ([5]; pH 6.5, [E] = 8.5 nM): 31.81 µM/min | kcat ([5]; pH 6.5, [E] = 8.5 nM): 62.37 s⁻¹ | Km ([5]; pH 7.6): 5.25 mM | Km ([5]; pH 7.6, [E] = 8.5 nM): 5.25 mM | Vmax ([5]; pH 7.6, [E] = 8.5 nM): 26.09 µM/min | kcat ([5]; pH 7.6, [E] = 8.5 nM): 51.16 s⁻¹

heparin binding compared to WT [3]: attenuated heparin binding | Heparin Column Binding [3]: Reduced | Average OD450, heparin binding ELISA ([4]; Set 1): 0.11 | Heparin Binding ELISA Average OD450 [4]: 0.03
B6: K374E: ADA2 variant SEQ ID NO:21 (protein)
chain: B1 chain with E20R, K371E
modifications: human ADA2 K371E, mature numbering
binding to heparin-coated plates compared to WT ADA2 [4]: attenuated binding to heparin | Km ([5]; pH 6.5, [E] = 8.5 nM): 3.18 mM | Vmax ([5]; pH 6.5, [E] = 8.5 nM): 41.93 µM/min | kcat ([5]; pH 6.5, [E] = 8.5 nM): 82.22 s⁻¹ | Km ([5]; pH 7.6, [E] = 8.5 nM): 4.77 mM | Vmax ([5]; pH 7.6, [E] = 8.5 nM): 35.13 µM/min | kcat ([5]; pH 7.6, [E] = 8.5 nM): 68.88 s⁻¹ | kinetics properties compared to WT [5]: improved kinetics properties compared to WT
